In assay [1] the target is T1, rat MAG-Fc fusion protein (R&D systems; 538-MG) (rat; human, UniProt P07722 20-516).
T1 construct: Bought reagent; not shown: human Fc
T1 sequence (looked up): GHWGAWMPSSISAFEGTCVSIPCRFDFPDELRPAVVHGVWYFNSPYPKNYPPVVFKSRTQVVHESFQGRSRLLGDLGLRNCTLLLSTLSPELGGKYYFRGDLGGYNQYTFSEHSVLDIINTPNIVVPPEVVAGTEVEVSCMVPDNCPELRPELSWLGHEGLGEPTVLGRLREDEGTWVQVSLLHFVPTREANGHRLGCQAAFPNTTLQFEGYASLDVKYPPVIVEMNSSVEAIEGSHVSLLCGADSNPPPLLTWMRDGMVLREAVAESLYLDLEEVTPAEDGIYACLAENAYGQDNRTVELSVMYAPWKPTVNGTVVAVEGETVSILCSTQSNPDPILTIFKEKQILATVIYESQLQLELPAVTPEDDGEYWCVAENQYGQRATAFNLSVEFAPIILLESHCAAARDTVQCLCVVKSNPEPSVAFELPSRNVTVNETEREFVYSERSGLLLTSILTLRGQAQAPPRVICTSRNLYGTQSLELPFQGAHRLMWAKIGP
Kind of assay: direct binding ELISA on coated rat MAG-Fc (FIG. 6). How it is done:
(§1) 96-well Nunc Maxisorp plates were coated overnight at 4° C. with rat MAG-Fc fusion protein (2.5 μg/ml; R&D Systems; Cat.No. 538-MG) in PBS. Plates were washed twice with PBS containing Tween20 (0.1% v/v; PBST) and blocked with PBS containing BSA (1% w/v) for 1 h at room temperature (RT). Purified humanised antibody was adjusted to a starting concentration of 5 μg/ml in blocking buffer and then serial diluted. Antibody samples were incubated 1 h at RT and plates then washed 3× with PBST. Secondary antibody (Goat anti-human light chain specific-peroxidase conjugate; Sigma A-7164) was added diluted 1/5000 in blocking buffer and incubated for 1 h at RT. Wells were washed three times as above and binding detected by adding substrate (OPD tablets dissolved according to instructions; Sigma P-9187). Colour development was monitored and the reaction stopped using 3M H₂SO₄. Colour development was read at 490 nm.
Background: In an ELISA, binding on a coated surface is turned into a signal by an enzyme label.

Assay [2] addresses T1, rat MAG-Fc fusion protein (R&D systems; …). Nature of the assay: direct binding ELISA on coated rat MAG-Fc, purified antibody. Here is the method: as §1

Substitutions are numbered along the chain they refer to.

B1: Humanised anti-MAG antibody BVh1/CVl1 (antibody, V domains shown)
VH: QVQLVQSGSELKKPGASVKVSCKASGYTFTNYGMNWVRQAPGQGLEWMGWINTYTGEPTYADDFTGRFVFSLDTSVSTAYLQISSLKAEDTAVYYCARNPINYYGINYEGYVMDYWGQGTLVTVSS
VL: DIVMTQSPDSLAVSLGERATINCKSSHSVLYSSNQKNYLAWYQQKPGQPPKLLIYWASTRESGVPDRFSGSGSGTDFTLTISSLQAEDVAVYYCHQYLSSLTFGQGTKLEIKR
notes: also called BVh1/CVI1
With B1, the binding result in assay [1] is “binds”.

B2: Humanised anti-MAG antibody BVh3/CVl3 (antibody, IgG1, V domains shown)
VH: B1 VH with V93T, Y95F
VL: DIVMTQSPDSLAVSLGERATINCKSSHSVLYSSNQKNYLAWYQQKPGQPPKLLIYWASTRESGVPDRFSGSGSGTDFTLTISSLHTEDVAVYYCHQYLSSLTFGQGTKLEIKR
notes: also called BVh3/CVI3
With B2, in assay [2], the binding result was “binds”.
